Measurements: article PMC4831018

How the values were obtained:
[1] = target: TgVps26-HA (Toxoplasma gondii); test: affinity purification with mass spectrometry; absolute quantification of TgVps35, TgVps26 and TgVps29 in the immunoprecipitates by microLC-SRM with stable isotope-labelled standard peptides, three proteotypic peptides per protein
[2] = target: TgVps29-cMyc (Toxoplasma gondii); test: as above

How did the stoichiometry N (TgVps35 per TgVps26) [1] turn out when TgVps35-HA (natural protein) was run?
The stoichiometry N (TgVps35 per TgVps26) was 1.

And the stoichiometry N (TgVps35 per TgVps29) [2]?
Its stoichiometry N (TgVps35 per TgVps29) is 3.
